Reference: patent publication CN106902750A

Legend:
[1] = target: Myc-GST融合蛋白(Myc标签与谷胱甘肽融合的蛋白); assay: indirect ELISA, Myc-GST coated at 5 μg/mL, HRP anti-His secondary antibody; heat test at 70℃ for 30 min
[2] = target: Myc-GST融合蛋白(Myc标签与谷胱甘肽融合的蛋白); assay: indirect ELISA, Myc-GST coated at 5 μg/mL, HRP anti-His secondary antibody; heat test at 80℃ for 30 min
[3] = target: Myc-GST融合蛋白(Myc标签与谷胱甘肽融合的蛋白); assay: indirect ELISA, Myc-GST coated at 5 μg/mL, HRP anti-His secondary antibody; heat test at 90℃ for 30 min

OD450 [1]: 1.5 OD450 | OD450 [2]: 1.4 OD450 | OD450 [3]: 1.2 OD450
B1: 抗c-Myc标签单域重链抗体 (VHH, not shown: small tags and cut ends)
VHH: QLQLVESGGGLVQPGESLTLTCVASGGTLENWDIAWFRQAPGKEREGVAYFSSDGIRNYGDSMRGRFKISRDNAKNTAWLQMNRLSVEDTSTYYCAAKERVGRAWRNDGLYRYWGQGTQVTVSS
